Measurements published in patent US20220289837A1 (VIB VZW, published 2022).

Columns and labels:
[1] = target: T1, Stabilized human CFTR (stab-CFTR: 2PT/ΔRI/R1048A_1172X) (human, UniProt P13569 1-1171, limits assumed); assay: cell-based or functional assay
[2] = target: T1, Stabilized human CFTR (stab-CFTR: …); assay: cell-based or functional assay; remark: listed apart in the source
[3] = target: T2, 2PT-NBD1 (human CFTR nucleotide-binding domain 1, residues 387-646, with S492P, A534P, I539T) (human, UniProt P13569 388-646, biotinylated for the ELISA (sites not given)); assay: ITC, nanobody titrated into 2PT-NBD1 at 20 °C, one-site model
T2 construct: N-terminal His6-SUMO tag removed with Ulp1; In the T2a-T4 and T27 crystals the domain was cut by papain or subtilisin
Procedure: (§1) Isothermal titration calorimetry (ITC) was used to characterize the thermodynamic parameters of the binding (FIG. 1e and FIG. 9). […] These KD values are similar to those measured for other in vivo matured camelid heavy-chain antibodies interacting with their ligands^{[20]}. The thermodynamic parameters of the interaction of nanobodies with 2PT-NBD1 were determined based on these ITC measurements (FIG. 1e and FIG. 9).
(§2) Interactions between nanobodies and 2PT-NBD1 was carried out on NanoITC system (TA Instruments) in 0.165 ml cells at 20° C., 300 rpm syringe stirring. Proteins were extensively dialyzed in 20 mM Hepes buffer pH 7.5, 150 mM NaCl, 10% (w/v) glycerol, 10% (w/v) ethylene glycol, 2 mM ATP and 3 mM MgCl₂ for 16 h at 4° C. Heat of dilution from control experiments of each nanobody titrated into buffer was subtracted from the titration into 2PT-NBD1. Data were integrated analyzed with Origin 7.0 software (Origin Lab Corp.).

[4] = target: T2, 2PT-NBD1 (human CFTR nucleotide-binding …); assay: ELISA, biotinylated 2PT-NBD1 on avidin-coated plate, T2a titrated
Text: (§3) The location of these nanobodies completely overlaps (FIG. 11a) with that of the C-terminal regulatory extension (RE) observed in previously published structures of NBD1^{[25,26].} The RE segment, comprising residues 654-673 was removed from the 2PT-NBD1 construct used for immunization and characterization. While the functional role of the RE is still unclear, it has been described to be a very mobile domain^{[27]}. […] This is consistent with RE being a dynamic region of CFTR.
(§4) For dose-response assays, Nunc MaxiSorp 96-well plates (ThermoScientific), were coated with 5 μg/ml NeutrAvidin Biotin-Binding protein (ThermoScientific) overnight at 4° C. and blocked 2 h at room temperature (RT) with 2% milk in phosphate-buffered saline (PBS). Each new reagent addition was preceded by three washes with 200 μl of NBD1 buffer (20 mM HEPES pH 7.5, 150 mM NaCl, and 10% (w/v) glycerol, 10% (w/v) ethylene glycol, 2 mM ATP, 3 mM MgCl₂). Then, biotinylated purified NBD1 proteins at 5 μg/ml were immobilized 30 min at RT followed by 1 h RT incubation with 100 μl various concentrations (0-20 μg/ml) of purified nanobodies. […] 50 μl of 1-Step UltraTMB-ELISA (ThermoScientific) was used as a substrate for the peroxidase and intensity of the reaction was proportional to absorbance measured at 450 nm with SynergyMx (BioTek) after addition of 50 μl H₂SO₄ at 1M.

[5] = target: 2PT-NBD1-RE (2PT-NBD1 with residues 387-678, containing the regulatory extension) (human, UniProt P13569 387-678, biotinylated for the ELISA (sites not given)); assay: ELISA, biotinylated 2PT-NBD1-RE on avidin-coated plate, T2a titrated
Text: as §3, §4

[6] = target: T2, 2PT-NBD1 (human CFTR nucleotide-binding …); assay: isothermal titration calorimetry, nanobody titrated into 2PT-NBD1 at 20 °C, one-site model
Procedure: as §1, §2

F508del-2PT-NBD1 [7] = target: T3, F508del-2PT-NBD1 (human, UniProt P13569 388-646, biotinylated for the ELISA (sites not given)); assay: ELISA, biotinylated F508del-2PT-NBD1 on avidin-coated plate, nanobody titrated, anti-His detection
T3 construct: also called F508del-2PT-NBD1 mutant
Procedure: (§5) (a) Nanobody binding to 2PT-NBD1 measured by ELISA. Biotinylated 2PT-NBD1 was immobilized on avidin-coated plates and incubated with increasing concentration of each nanobody. Binding of nanobody was followed by immunodetection of the His-tag (see Methods). Representative curve of 3 independent experiments is shown. Error bars represent the standard deviation (SD) of duplicates. Data were normalized to maximum signal for each nanobody separately. (b) Nanobody binding to F508del-2PT-NBD1 measured by ELISA as described in panel a. (c) Nanobody T4 binding to 2PT-NBD1 and F508del-2PT-NBD1. Data were normalized to maximum signal of T4 binding to 2PT-NBD1. (d) Nanobody T8 binding to 2PT-NBD1 and F508del-2PT-NBD1. Data were normalized to maximum signal of T8 binding to 2PT-NBD1.
For dose-response assays, Nunc MaxiSorp 96-well plates (ThermoScientific), were coated with 5 μg/ml NeutrAvidin Biotin-Binding protein (ThermoScientific) overnight at 4° C. and blocked 2 h at room temperature (RT) with 2% milk in phosphate-buffered saline (PBS). Each new reagent addition was preceded by three washes with 200 μl of NBD1 buffer (20 mM HEPES pH 7.5, 150 mM NaCl, and 10% (w/v) glycerol, 10% (w/v) ethylene glycol, 2 mM ATP, 3 mM MgCl₂). Then, biotinylated purified NBD1 proteins at 5 μg/ml were immobilized 30 min at RT followed by 1 h RT incubation with 100 μl various concentrations (0-20 μg/ml) of purified nanobodies. Signal detection was followed using His-tag specific antibody (Invitrogen, catalogue number: MA1-135, 1:3000 dilution) to detect the nanobodies and secondary antibody anti-mouse coupled to horse radish peroxidase (HRP) (Millipore, catalogue number: AP308P, 1:5000 dilution). 50 μl of 1-Step UltraTMB-ELISA (ThermoScientific) was used as a substrate for the peroxidase and intensity of the reaction was proportional to absorbance measured at 450 nm with SynergyMx (BioTek) after addition of 50 μl H₂SO₄ at 1M.

[8] = target: T2, 2PT-NBD1 (human CFTR nucleotide-binding …); assay: ELISA, biotinylated 2PT-NBD1 on avidin-coated plate, T8 titrated, anti-His detection
Procedure: as §5
(§6) For dose-response assays, Nunc MaxiSorp 96-well plates (ThermoScientific), were coated with 5 μg/ml NeutrAvidin Biotin-Binding protein (ThermoScientific) overnight at 4° C. and blocked 2 h at room temperature (RT) with 2% milk in phosphate-buffered saline (PBS). […] 50 μl of 1-Step UltraTMB-ELISA (ThermoScientific) was used as a substrate for the peroxidase and intensity of the reaction was proportional to absorbance measured at 450 nm with SynergyMx (BioTek) after addition of 50 μl H₂SO₄ at 1M.

F508del-2PT-NBD1 [9] = target: T3, F508del-2PT-NBD1; assay: ELISA, biotinylated F508del-2PT-NBD1 on avidin-coated plate, T8 titrated, anti-His detection; normalised to the maximum of T8 on 2PT-NBD1
Procedure: as §5, §6

T2 sequence (P13569 388-646 V470M/S492P/A534P/I539T limits assumed): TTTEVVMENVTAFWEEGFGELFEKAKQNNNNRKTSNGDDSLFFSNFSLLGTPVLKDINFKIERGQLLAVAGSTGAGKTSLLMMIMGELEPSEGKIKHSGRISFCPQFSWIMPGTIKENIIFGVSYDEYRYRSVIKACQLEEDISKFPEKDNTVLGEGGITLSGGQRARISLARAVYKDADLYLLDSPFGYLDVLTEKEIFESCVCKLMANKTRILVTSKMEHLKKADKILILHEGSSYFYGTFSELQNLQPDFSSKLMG
T1 sequence (P13569 other isoform, or with tags, fused parts or gaps R1048A R1048A limits assumed): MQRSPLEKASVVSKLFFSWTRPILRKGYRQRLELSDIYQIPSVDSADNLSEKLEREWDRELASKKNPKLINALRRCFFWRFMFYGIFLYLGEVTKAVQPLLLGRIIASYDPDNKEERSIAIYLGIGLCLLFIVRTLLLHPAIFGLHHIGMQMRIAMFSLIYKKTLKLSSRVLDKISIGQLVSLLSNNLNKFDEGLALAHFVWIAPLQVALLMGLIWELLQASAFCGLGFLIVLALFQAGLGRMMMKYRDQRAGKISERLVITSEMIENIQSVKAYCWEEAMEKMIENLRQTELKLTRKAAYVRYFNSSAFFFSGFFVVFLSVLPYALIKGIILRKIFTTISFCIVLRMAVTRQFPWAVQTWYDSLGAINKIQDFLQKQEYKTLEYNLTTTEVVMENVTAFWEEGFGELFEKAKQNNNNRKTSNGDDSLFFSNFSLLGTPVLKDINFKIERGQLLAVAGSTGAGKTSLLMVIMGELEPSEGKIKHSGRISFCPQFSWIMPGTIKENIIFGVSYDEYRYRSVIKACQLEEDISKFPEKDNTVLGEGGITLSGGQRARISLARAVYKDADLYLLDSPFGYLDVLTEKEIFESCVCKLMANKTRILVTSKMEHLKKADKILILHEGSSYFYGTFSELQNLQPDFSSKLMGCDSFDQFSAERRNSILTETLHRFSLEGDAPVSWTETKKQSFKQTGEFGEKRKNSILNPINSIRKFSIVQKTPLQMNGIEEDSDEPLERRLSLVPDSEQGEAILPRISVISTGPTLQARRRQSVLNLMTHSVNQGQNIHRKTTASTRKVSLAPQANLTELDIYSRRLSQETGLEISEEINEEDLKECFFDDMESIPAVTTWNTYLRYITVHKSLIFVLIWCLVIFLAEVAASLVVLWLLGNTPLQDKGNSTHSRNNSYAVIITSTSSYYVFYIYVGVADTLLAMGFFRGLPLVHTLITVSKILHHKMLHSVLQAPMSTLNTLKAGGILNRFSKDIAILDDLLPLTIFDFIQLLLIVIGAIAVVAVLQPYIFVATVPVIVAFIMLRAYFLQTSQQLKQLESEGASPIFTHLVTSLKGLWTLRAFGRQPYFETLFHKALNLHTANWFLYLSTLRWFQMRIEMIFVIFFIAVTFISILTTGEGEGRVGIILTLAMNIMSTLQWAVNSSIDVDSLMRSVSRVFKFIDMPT
T3 sequence (P13569 other isoform, or with tags, fused parts or gaps limits assumed, stated change not applied): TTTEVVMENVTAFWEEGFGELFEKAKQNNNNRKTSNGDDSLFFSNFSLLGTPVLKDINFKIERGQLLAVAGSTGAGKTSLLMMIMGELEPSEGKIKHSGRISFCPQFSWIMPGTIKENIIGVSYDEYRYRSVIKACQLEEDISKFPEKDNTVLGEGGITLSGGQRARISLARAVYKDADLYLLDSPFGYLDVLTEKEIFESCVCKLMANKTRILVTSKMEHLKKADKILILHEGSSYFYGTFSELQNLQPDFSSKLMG
Chain of 2PT-NBD1-RE (2PT-NBD1 with residues 387-678, containing the regulatory extension) (P13569 other isoform, or with tags, fused parts or gaps limits assumed): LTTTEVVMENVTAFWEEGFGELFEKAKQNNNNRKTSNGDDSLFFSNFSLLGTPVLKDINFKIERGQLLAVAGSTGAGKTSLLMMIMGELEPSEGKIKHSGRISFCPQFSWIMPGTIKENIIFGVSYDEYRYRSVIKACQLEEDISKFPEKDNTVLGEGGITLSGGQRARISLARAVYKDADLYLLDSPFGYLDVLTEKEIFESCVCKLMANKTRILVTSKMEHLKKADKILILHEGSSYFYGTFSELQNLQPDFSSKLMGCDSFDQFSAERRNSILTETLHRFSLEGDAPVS

B1: Nanobody T2a (VHH, not shown: small tags and cut ends)
VHH: QVQLQESGGGLVQAGGSLRLSCAASGSIFRIDAMGWYRQAPGKQRELVAHSTSGGSTDYADSVKGRFTISRDNAKNTVYLQMNSLKPEDTAVYYCNADVRTRWYASNNYWGQGTQVTVSS
notes: Llama nanobody; also called Nb T2a; T2a Nb
Q: With B1 as the binder, how does the “thermostabilization (nanoDSF, Tm)” value [1] read?
A: Its value is 8 °C.

Q: And the “Tm of stab-CFTR in complex with the nanobody (nanoDSF, first derivative of 350 nm fluorescence); 'stab-CFTR (51.4°C)', 'T2a (66.6°C)' alone” value [2]?
A: The value was 59.7 °C.

Q: What about the ΔG [3] of the same binder?
A: Its ΔG is -9.7 kcal/mol.

Q: And the ΔH [3]?
A: Its ΔH is -13.8 kcal/mol.

Q: What about the “EC50 (read off the curve)” value [4] of the same binder?
A: The value was about 7 nM.

Q: And the “EC50 (read off the curve)” value [5]?
A: The value was about 10 nM.

Q: And the Kd [6]?
A: The Kd was 54 nM.

Q: And the “EC50 (read off the curve)” value (F508del-2PT-NBD1 [7])?
A: The value was about 10 nM.

B2: Nanobody T8 (VHH, not shown: small tags and cut ends)
VHH: QVQLQESGGGLVQPGGSLRLSCAASGSTSSINAMGWYRQAPGKQREPVAISSSGGDTRYAEPVKGRFTISRDNAQNKVYLQMNSLKPEDTAVYYCWLNWGRTSVNSWGQGTQVTVSS
notes: Llama nanobody; also called Nb T8; T8 Nb
Q: Which results are given for B2?
A: ΔG [3]: -9.94 kcal/mol; ΔH [3]: -15.5 kcal/mol; Kd [6]: 39 nM; EC50 (read off the curve) [8]: ~10 nM; binding result (F508del-2PT-NBD1 [9]): no binding (tested: log [T8] about -5.9 M)
